Laboratory results taken from the supplement of paper PMC9170038.

Assays:
MS2 coat protein [1] = experiment: apparent KD of MS2 coat protein, switch OFF state (with FMN for OFF switches, without FMN for ON switches); designed switch direction (-1 OFF switch, 1 ON switch): -1; higher = weaker reporter binding; conditions: FMN input: 0 or 200 uM; Eterna round: R93 (includes R88 designs)
Procedure, shortened: (§1)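 Titration buffer: 100 mM Tris-HCl pH 7.5, 80 mM KCl, 4 mM MgCl2, without or with constant ligand. Designed RNA switches transcribed on-chip from Illumina sequencing clusters received SNAP-549-labelled MS2 coat protein in twofold steps from 0.7 or 1.5 nM to 3 µM. Apparent KD is the median per design of fits to normalised cluster binding curves.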

MS2 coat protein [2] = experiment: apparent KD of MS2 coat protein, switch ON state; designed switch direction (-1 OFF switch, 1 ON switch): -1; higher = weaker reporter binding; conditions: FMN input: 0 or 200 uM; Eterna round: R93 (includes R88 designs)
Procedure, shortened: as §1

MS2 coat protein [3] = experiment: apparent KD of MS2 coat protein; designed switch direction (-1 OFF switch, 1 ON switch): 1; higher = weaker reporter binding
Procedure, shortened: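 Normalised cluster fluorescence was curve-fitted, and each design's median over clusters is its apparent KD. Before this, SNAP-549-labelled MS2 coat protein was titrated from 0.7 or 1.5 nM, doubling to 3 µM, over RNA switches transcribed on Illumina chips by stalled E. coli RNA polymerase. Titrations had no input, 200 uM small-molecule ligand, or an oligonucleotide input, and steps lasted 0.8–1.5 h (lowest) to 10–20 min (highest).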

[4] = input ligand: microRNA oligo, concentration not stated
[5] = Eterna round: R95, input ligand: FMN 200 uM
[6] = Eterna round: R95, input ligand: microRNA oligo, concentration not stated
[7] = Eterna round: R95, input ligand: none

Sequence	apparent KD of MS2 coat protein (MS2 coat protein [1]) [nM]	apparent KD of MS2 coat protein (MS2 coat protein [2]) [nM]	also measured
AGUGAGUGAGGAUAUCACUGAAGAAUAAAAGAAAUAACGAGUGAGAAGGCACAUGAGGAUCACCCAUGUACACA [May 63]	18.3	24.1	
AACAGUACAGGAUAUACAUGAGGAUCACCCAUGUGAAAAUUAAGUGGAAAACCACAAGGUAGAAGGGUACUGGA [Mat - Exclusion 3 - Eli mod - D63]	78.7	21.6	
AAAAAGGCAGGAUAUGCAUACCCACGAAAAAAAACGCUGGGACAUGAGGAUCACCCAUGUAGAAGGGCCAAAAA [Dora Explored 11 - Jieux - Exclusion 2]	28.2	54	
AGCUAGUCAGGAUAUACGAACAGCUCAAAAGAGCUGAAGGGACAUGAGGAUCACCCAUGUAGAAGGGACUAGCA [Mat - Exclusion 2 - JL mod - D27]	89.6	24.5	
AACAGGACAGGAUAUACAUGAGGAUCACCCAUGUAGGAACAAAGCAGAGUACCAAACAGUAGAAGGGUCAUGGA [Ruby 28]	37.2	34.2	
AAAUAGCAAGGAUAUACAUGAGGAUCACCCAUGUGAAAAUGAUACGUAAUAGAAUAGAGUAGAAGGUGCAAAUA [Ex 3 Tesla 7]	28.7	25.1	
CCGAGACAUGAGGAUCACCCAUGUGAGGAUAUAGGUGUAUGCAAAAAAAAGUUAAAAACUAGAAGGCACAGAGG [JR_Exc001_Sub307]	30.9	37	
AAAAAACAUGAGGAUCACCCAUGUGAGGAUAUCCAAAACAAAAAAAAACAAAACAAAAGGAGAAGGCACAUAAA [Amethyst 54]	43.1	58.8	
CUUAUGUCAGGAUAUCAGUAGUAAAAAAAUAAAAUUACUACUGAGAAGGGACAUGAGGAUCACCCAUGUCAAAA [EX4 365: Super Stable 65]	97.2	164	
AAGAAGUCAGGAUAUGCCAGAGAUCACGAAAGUGACUAAGGGCAGAAGGGACAUGAGGAUCACCCAUGUAAAGA [Opal 5]	62.1	63.4	
AAGAAGCUAGGAUAUACAUGAGGAUCACCCAUGUAAAAGAAAGAAGGGAAAGAGAAAAGUAGAAGGAGCAAGAA [Tefnakht]	34.4	26.6	
AACAGUACAGGAUAUACAUGAGGAUCACCCAUGUGAGAAUUAAGUGGAGAACCACAAAGUAGAAGGGUACUGGA [Mat - Exclusion 3 - JL mod - D2]	250	37.1	
AGUUGGCGAGGAUAUACAUGAGGAUCACCCAUGUGAGAGAAAAAAAGAAGAAAAAAAAGUAGAAGGCGCUGACA [Mat - Exclusion 3 - Lego mod - D43]	103	44.2	
AAGAACCAAGGAUAUACAUGAGGAUCACCCAUGUAAAAGAAAGAAAGGGAAAAGAAAAGUAGAAGGUGGAAGAA [Takelot I]	32.8	28.1	
AACAGUACAGGAUAUACAUGAGGAUCACCCAUGUGAAAAUUAAGUGGCGAACCACAAAGUAGAAGGGUACUGAA [Mat - Exclusion 3 - Eli mod - D56]	79.3	38.7	
ACAGUUACAGGAUAUACAAGGGAAAAUAAAAAUAAACUUCAACAUGAGGAUCACCCAUGUAGAAGGGUAACUGA [Ex2 Design 199: Random 14]	112	35.5	
AAGAAGUGAGGAUAUGCAAAAGAAAAGAAAAGAAAAGAAAAGCAGAAGGCACAUGAGGAUCACCCAUGUAAGAA [Petubastis III]	28.9	12.8	
GAAAAGGUAGGAUAUACGAAAAAAAAGGGUAAAAAAUAAAAACAUGAGGAUCACCCAUGUAGAAGGACCAAAAG [Mat - Exclusion 2 - Tesla mod - D40]	55.3	28.8	
AAAAAGUCAGGAUAUCGGAAAAAAAAAAAAAAAAAAAAAAACGAGAAGGGACAUGAGGAUCACCCAUGUAUGAC [Ex 4 May 7]	243	56.9	
AGCUAGUGAGGAUAUGCGAACAUGUCAAAAGACGUGAAGGGACAUGAGGAUCACCCAUGUAGAAGGCGCUAGCA [JL 74% mod 2]	32.7	33	

Sequence	apparent KD of MS2 coat protein (MS2 coat protein [1]) [nM]	apparent KD of MS2 coat protein (MS2 coat protein [2]) [nM]	also measured
AAAAGCACAGGAUAUACAUAAUUAUGACGAAAGUCAUAAAAACAUGAGGAUCACCCAUGUAGAAGGGUGCAAAA [Mod of Meechl's... 64% 1]	37.8	118	
AAAUUAGCAGGAUAUACUAGGGUCCACCGAACUCUGAAAAGACAUGAGGAUCACCCAUGUAGAAGGGCUUCGAA [Atileso]	97.6	30	
AAGAAGAUAGGAUAUACAAGAAAGAAAGAAAAGAAAAGAAAACAUGAGGAUCACCCAUGUAGAAGGAUCUAGAA [EteRNA is fun!]	15.9	30.8	
AAAAAGUCAGGAUAUGCGAAGGCGUCUGAUAGACGAGGCUAGCAGAAGGGACAUGAGGAUCACCCAUGUGGAAG [Mat - Exclusion 4 - Eli mod - D89]	121	81.3	
GAAAAACAUGAGGAUCACCCAUGUAAGGAUAUGCUAAAAAACACGGAAAAACGUGAUAGCAGAAGGUACAAAAG [Mat - Exclusion 1 - Eli mod - D88]	44	19.8	
AAAAAACAUGAGGAUCACCCAUGUAAGGAUAUCGGAAAAGGAAAAAUAAAAAAGAAGACGAGAAGGUACACCAA [Mat - Exclusion 1 - Eli mod - D78]	24	25.8	
CUCUAGUCAGGAUAUACAAGAAAAGAAGAGAAAGAAAAGAAGUAGAAGGGACAUGAGGAUCACCCAUGUAAGAA [EteRNA is fun!]	48.2	50.9	
AACAUGUUAGGAUAUUGAAGAAAAGAAAAGAAAGAAAAGAACAAGAAGGAACAUGAGGAUCACCCAUGUAAGAA [EteRNA is fun!]	17.2	25	
AGCUAGUCAGGAUAUACAAACAUGUCGAAAGACGUGAAGGGACAUGAGGAUCACCCAUGUAGAAGGGACUAGCA [Mod of Janderson's WEB Mod v.2]	273	50	
AGUAGAUCAGGAUAUACGUGAAAGGUCAAAGUGUCACUUCUACAUGAGGAUCACCCAUGUAGAAGGGAUCUACA [Ex2 Design 122: Not so Super Stable 9]	12.4	12.9	
AAGGGACAUGAGGAUCACCCAUGUAAGGAUAUCGGAAAAGGAAAAAAAAAAAAUAAGACGAGAAGGUACAAAAA [Mat - Exclusion 1 - Eli mod - D80]	73.5	70.2	
AAAAAGUCAGGAUAUGUCAAAGGUCACGAAAGUGACAAAGGACAGAAGGGACAUGAGGAUCACCCAUGUGGAAA [Fiskers Exclusion 4D1 65% - Late G segment 1]	115	82	
AGGAGACAUGAGGAUCACCCAUGUUAGGAUAUGAACGAAAAUAAAUAAAAAUAAAAGUUCAGAAGGAACGAAAA [66%, Wbt, 9]	45.2	45.1	
CGUCGUUUGAUAGGAUAUCGCUUUACAUGAGGAUCACCCGGGUUUACCACGCUGGUUUUUCUUUCCGAGAAGGAUUCUGAUGUU [salish99_SSNG02_r04_028] (Eterna round: R96, puzzle: Same State NG 2)			apparent KD of MS2 coat protein (MS2 coat protein [3]; input ligand: FMN 200 uM): 117 nM; apparent KD of MS2 coat protein (MS2 coat protein [3]; [4]): 20.7 nM; apparent KD of MS2 coat protein (MS2 coat protein [3]; input ligand: none): 29 nM
AAACUACGUGCACAGGAUAUACGUUCCUAUACAUGAGGAUCACCCAUGUACCAACCGAAAAGGAAGUAGAAGGGUGUCCGUAAAC [Esardixequ] (puzzle: Same State 2)			apparent KD of MS2 coat protein (MS2 coat protein [3]; [5]): 19.2 nM; apparent KD of MS2 coat protein (MS2 coat protein [3]; [6]): 51.6 nM; apparent KD of MS2 coat protein (MS2 coat protein [3]; [7]): 57.2 nM
GCUCCAUUACGAGGAUAUGGGAAAGGAAGUGUACCAGAAGGCGUGAAAAGGUACAUGAGGAUCACCCAUGUACCCGGGAGCAAA [PowerStrip SSNG 1.11] (Eterna round: R96, puzzle: Same State NG 1)			apparent KD of MS2 coat protein (MS2 coat protein [3]; input ligand: FMN 200 uM): 23.1 nM; apparent KD of MS2 coat protein (MS2 coat protein [3]; [4]): 19.6 nM; apparent KD of MS2 coat protein (MS2 coat protein [3]; input ligand: none): 20.3 nM
GGAGGACAUGAGGAUCACCCAUGUGGAUGAUCGCUAGGAUAUGCGUGCGGGAGGAGUGGUGCAGAAGGAGUGGGAU [JR_SS1_Sub049] (puzzle: Same State 1)			apparent KD of MS2 coat protein (MS2 coat protein [3]; [6]): 188 nM
GGUCCAGCCUGAGCUGGACCGAAGCAUGUACAUGAGGAUCACCCAUGUCAUGUACAGGCUUUUUGCUCGUCUUAUUG [JL-shm-2.12 JL Mod] (puzzle: Sensor for hsa-mir-208a)			apparent KD of MS2 coat protein (MS2 coat protein [3]; [5]): 685 nM; apparent KD of MS2 coat protein (MS2 coat protein [3]; [6]): 15.7 nM; apparent KD of MS2 coat protein (MS2 coat protein [3]; [7]): 694 nM
ACAUGAAAUUCAGGAUAUUUUGUACCUACAUGUGACAUGAGGAUCACCCAUGUGGUAAGUAUAAGAGAGAAGGGAAAGAUAUGU [Equivalence 5 - Jieux - Same State NG 2] (Eterna round: R96, puzzle: Same State NG 2)			apparent KD of MS2 coat protein (MS2 coat protein [3]; input ligand: FMN 200 uM): 29.1 nM; apparent KD of MS2 coat protein (MS2 coat protein [3]; [4]): 29.9 nM; apparent KD of MS2 coat protein (MS2 coat protein [3]; input ligand: none): 38.5 nM
